# Test results taken from patent publication US20120301476A1 (TORAY INDUSTRIES, published 2012).
# T1: peptide of SEQ ID NO: 69 (partial sequence in the polypeptide of SEQ ID NO: 37) (human)
# T1 peptide: QQPQAASPSVPE
# T2: peptide of SEQ ID NO: 70 (partial sequence in the polypeptide of SEQ ID NO: 37) (human)
# T2 peptide: FTSGEKEQVDEW
# T3: human CAPRIN-1 protein on the cell surfaces of human cancer cell lines and in human cancer tissues (human, UniProt Q14444 2-709)
# T3 construct: whole, on cells; Endogenous protein of human cancer cell lines (flow cytometry, ADCC, CDC) and of human cancer tissue sections (immunohistochemistry); also called CAPRIN-1 protein expressed on the cell membrane surfaces
# T3 sequence (looked up): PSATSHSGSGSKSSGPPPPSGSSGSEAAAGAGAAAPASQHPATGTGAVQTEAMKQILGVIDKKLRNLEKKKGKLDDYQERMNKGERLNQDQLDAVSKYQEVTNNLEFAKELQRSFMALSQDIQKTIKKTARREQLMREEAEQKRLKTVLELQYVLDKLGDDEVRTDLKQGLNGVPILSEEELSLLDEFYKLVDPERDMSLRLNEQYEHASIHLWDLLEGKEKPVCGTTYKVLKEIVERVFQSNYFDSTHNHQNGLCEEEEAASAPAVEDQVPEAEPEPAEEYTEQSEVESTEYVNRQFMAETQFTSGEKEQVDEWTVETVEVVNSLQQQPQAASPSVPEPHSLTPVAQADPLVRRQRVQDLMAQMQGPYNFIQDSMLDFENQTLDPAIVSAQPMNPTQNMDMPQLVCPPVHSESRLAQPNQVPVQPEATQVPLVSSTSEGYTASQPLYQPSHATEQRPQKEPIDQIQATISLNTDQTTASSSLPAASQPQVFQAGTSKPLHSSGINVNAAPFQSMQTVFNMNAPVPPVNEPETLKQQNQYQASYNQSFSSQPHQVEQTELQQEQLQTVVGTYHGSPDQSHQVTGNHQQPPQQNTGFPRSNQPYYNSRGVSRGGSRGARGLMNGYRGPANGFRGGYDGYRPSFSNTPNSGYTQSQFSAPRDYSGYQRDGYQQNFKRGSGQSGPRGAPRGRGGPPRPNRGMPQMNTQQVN
# B1: anti-CAPRIN-1 mouse monoclonal antibody #5 (antibody, V domains shown)
# VH: GAELVRSGASVKMSCKASGYSFTDYNMYWVKQTPGQGLEWIGYIYPGNGGTNYNQKFKGKATLTADTSSSTAYMQISSLTSEDSAVYFCARDYDDGGYAMDYWGQGTTVTVSS
# VL: DIQMTQSPASLSASVGETVTITCRASGNIHNYLTWYQQKQGKSPQLLVYNAKTLADGVPSRFSGSGSGTQYSLKINRLQPEDFGSYYCQHFWNIPWTFGGGTKLNSR
# notes: Mouse hybridoma antibody; detected with anti-mouse IgG
# B2: anti-CAPRIN-1 mouse monoclonal antibody #6 (antibody, V domains shown)
# VH: DAELVKPGASVKISCKASGYTFTDHSIHWVQQKPEQGLEWIGYISPGNGNIKYNEKFKGKATLTADKSSSTAYMQLNSLTSEDSAVYFCKRSLGRGGPYYFDYWGQGTTVTVSS
# VL: DIVLTQAAPSLPVTPGESVSISCRSSKSLLHSNGNTYLYWFLQRPGQSPQLLIYRMSNLASGVPDRFSGSGSGTAFTLRISRVEAEDVGVYYCMQHREYPVTFGSGPN
# notes: as for B1
# B3: anti-CAPRIN-1 mouse monoclonal antibody #4 (antibody, V domains shown)
# VH: B1 VH
# VL: B1 VL
# B4: anti-CAPRIN-1 mouse monoclonal antibody #3 (antibody, V domains shown)
# VH: GGGLVKPGGSLKLSCAASGFTFSSYGMSWVRQTPEKRLEWVATISSGGSYTYYPDSVKGRFTISRDNAKNTLYLQMSSLRSEDTAMYYCASLASYYFDYWGQGTTLTVSS
# VL: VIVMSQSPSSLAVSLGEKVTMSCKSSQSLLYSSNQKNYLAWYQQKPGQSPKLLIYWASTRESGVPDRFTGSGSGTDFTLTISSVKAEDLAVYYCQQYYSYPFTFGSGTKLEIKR
# Target: T1, peptide of SEQ ID NO: 69 (partial …)
# Experiment: ELISA on immobilised synthetic peptides
# Experimental: (§1) Each peptide was dissolved in 0.1M sodium carbonate buffer (pH 9.6) at a concentration of 30 μg/ml, added to a 96-well plate (Nunc, Product No. 436006) at 100 μl per well, and then left to stand at 4° C. overnight. The solution was discarded, 10 mM ethanolamine/0.1M sodium carbonate buffer (PH 9.6) was added at 200 μl per well, and then the plate was left to stand at room temperature for 1 hour. The solution was discarded, the plate was washed twice with PBS (PBST) containing 0.5% Tween20, so that the plate with each peptide immobilized thereto was prepared.
# (§2) A cell culture supernatant containing the human-chicken chimeric monoclonal antibody (#1) and the mouse monoclonal antibodies (#2, #3, #4, #5, and #6) obtained in Example 4 (2) was added to the plate at 50 μl per well. After 1 hour of shaking at room temperature, the solution was removed, and then the plate was washed three times with PBST. Next, an HRP-labeled anti-human IgG (Invitrogen) antibody diluted 3000- to 4000-fold with PBST (a secondary antibody solution) was added to each well of the human-chicken chimeric monoclonal antibody and an HRP-labeled anti-mouse IgG (Invitrogen) antibody diluted 3000- to 4000-fold with PBST (a secondary antibody solution) was added to each well of the mouse monoclonal antibody, at 50 μl per well, and then the solution was removed, followed by six times of washing with PBST.
# (§3) A TMB substrate solution (Thermo) was added at 100 μl per well, and the plate was left to stand for 15 to 30 minutes for coloring reaction. After color development, 1N sulfuric acid was added at 100 μl per well to stop the reaction and then absorbances at 450 nm and 595 nm were measured using an absorption spectrometer. As a result, the polypeptide of SEQ ID NO: 37 was identified as a CAPRIN-1 partial sequence that is recognized by all of the anti-CAPRIN-1 monoclonal antibodies #1 to #6. Furthermore, the peptide of SEQ ID NO: 69 was identified as a partial sequence in the above polypeptide of SEQ ID NO: 37, which is recognized by the monoclonal antibodies #1, #4, and #5. […]
row,Binder,binding result
1,B1,binds

# Target: T2, peptide of SEQ ID NO: 70 (partial …)
# Experiment: ELISA on immobilised synthetic peptides
# Experimental: as §1, §2, §3
row,Binder,binding result
1,B2,binds

# Target: T3, human CAPRIN-1 protein on the cell …
# Experiment: flow cytometry on the listed human cancer cell lines, culture supernatant, against negative control
# Experimental: 10⁶ cells of each cell line were centrifuged in a 1.5 ml microcentrifuge tube. Each cell culture supernatant (100 μl) of CHO-K1 cells containing #1 obtained in (2) above and hybridomas producing #2, #3, #4, #5, and #6 obtained in Example 3 was added and then left to stand on ice for 1 hour. After washing with PBS, a FITC-labeled goat anti-human IgG (H+L) antibody (SouthernBiotech) and a FITC-labeled anti-mouse IgG (H+L) antibody (Invitrogen) diluted 500-fold with PBS containing 0.1% FBS were added and then left to stand on ice for 1 hour. After washing with PBS, fluorescence intensity was measured using a FACS Calibur (Becton, Dickinson). Meanwhile, procedures similar to the above were performed using a culture supernatant of CHO-K1 cells into which no antibody gene had been introduced and medium for culturing hybridomas, so that a negative control sample was prepared. […] Specifically, when the antibody #1 was used, fluorescence intensity was enhanced to 4700% in the case of SK-BR-3 and 5500% in the case of MDA-MB-231V. Also, when the antibodies #2, #3, #4, #5, and #6 were used, fluorescence intensity was enhanced. […] The percentage of enhancement in the above fluorescence intensity was expressed as percentage of increase in mean fluorescence intensity (MFI level) in each type of cell and calculated by the following formula.
row,Binder,percentage of increase in mean fluorescence intensity [%]
1,B2,≥ 20
2,B3,≥ 20
3,B1,≥ 20
4,B4,≥ 20

# Target: T3, human CAPRIN-1 protein on the cell …
# Experiment: cell-based or functional assay
Binder,cytotoxic activity (ADCC) against A549 [%],cytotoxic activity (ADCC) against ACHN [%],cytotoxic activity (ADCC) against AML5 [%],cytotoxic activity (ADCC) against Caki-1 [%],cytotoxic activity (ADCC) against KYSE180 [%],cytotoxic activity (ADCC) against MDA-MB-157 [%],cytotoxic activity (ADCC) against MNK28 [%],cytotoxic activity (ADCC) against MNK45 [%],cytotoxic activity (ADCC) against QG56 [%],cytotoxic activity (ADCC) against Ramos [%]
B2,≥ 24,≥ 14,≥ 10,≥ 23,≥ 22,19,≥ 15,≥ 10,≥ 20,≥ 10
B3,≥ 24,≥ 14,≥ 10,≥ 23,≥ 22,31,≥ 15,≥ 10,≥ 20,≥ 10
B1,≥ 24,≥ 14,≥ 10,≥ 23,≥ 22,30.9,≥ 15,≥ 10,≥ 20,≥ 10
B4,≥ 24,≥ 14,≥ 10,≥ 23,≥ 22,32.4,≥ 15,≥ 10,≥ 20,≥ 10

# Same assay, conditions: not given
Binder,cytotoxic activity (ADCC) against SW480 [%],cytotoxic activity (ADCC) against SW756 [%],cytotoxic activity (ADCC) against T24 [%],cytotoxic activity (ADCC) against T98G [%],cytotoxic activity (ADCC) against U373 [%]
B2,≥ 17,≥ 16,≥ 18,≥ 12,≥ 16
B3,≥ 17,≥ 16,≥ 18,≥ 12,≥ 16
B1,≥ 17,≥ 16,≥ 18,≥ 12,≥ 16
B4,≥ 17,≥ 16,≥ 18,≥ 12,≥ 16
